# In patent US6303361, “Human glandular kallikrein-1 (hK2)” (Orion-Yhtyma Oyj, dated 2001):
# B1: recombinant Trp226-hK2 protein (Trp226-hK2 having the N-terminal dipeptide extension Ser-Arg, from insect cells) (enzyme)
# chain: not shown
# Key:
# α1-antichymotrypsin = α1-antichymotrypsin (Homo sapiens (Human), UniProt P01011); assay: complex formation with serpin (method not described)
# α1-antitrypsin = α1-antitrypsin (Homo sapiens (Human), UniProt P01009); assay: as above
binder,measurement,setting,value
B1,binding result,α1-antichymotrypsin,no binding
same,binding result,α1-antitrypsin,no binding
